Reference: the FLAb antibody collection (doi:10.7554/elife.23156)

B1: scFv; the commonest letter at each place (parent)
chain 1: EVKLDETGGGLVQPGRPMKLSCVASGFTFSDYWMNWVRQSPEKGLEWVAQIRNKPYNYETYYSDSVKGRFTISRDDSKSSVYLQMNNLRVEDMGIYYCTGSYYGMDYWGQGTSVTVS
chain 2: DVVMTQTPLSLPVSLGDQASISCRSSQSLVHSNGNTYLRWYLQKPGQSPKVLIYKVSNRFSGVPDRFSGSGSGTDFTLKISRVEAEDLGVYFCSQSTHVPWTFGGGTKLEIK

What was measured:
fluorescein = variants of: B1; assay: Kd (Tite-Seq); details: with fluorescein; format: scFv 4-4-20, heavy + light
[1] = variants of: B1; assay: yeast surface expression (ratio to wild type); higher = more expressed; details: format: scFv 4-4-20, heavy + light

Variant	Kd (fluorescein)	yeast surface expression [1]
chain 1 EVKLDETGGGLVQPGRPMKLSCVASGFTFSDYWMNWVRQSPEKGLEWVAQIRNKPYNYETYYSDSVKGRFTISRDDSKSSVYLQMNNLRVEDMGIYYCTGSRYGGDYWGQGTSVTVS chain 2 DVVMTQTPLSLPVSLGDQASISCRSSQSLVHSNGNTYLRWYLQKPGQSPKVLIYKVSNRFSGVPDRFSGSGSGTDFTLKISRVEAEDLGVYFCSQSTHVPWTFGGGTKLEIK [chain 1 Y102R M105G]	≥ 10000 nM	0.754
chain 1 EVKLDETGGGLVQPGRPMKLSCVASGFTFSDYWMNWVRQSPEKGLEWVAQIRNKPYNYETYYSDSVKGRFTISRDDSKSSVYLQMNNLRVEDMGIYYCTGSRYGNDYWGQGTSVTVS chain 2 DVVMTQTPLSLPVSLGDQASISCRSSQSLVHSNGNTYLRWYLQKPGQSPKVLIYKVSNRFSGVPDRFSGSGSGTDFTLKISRVEAEDLGVYFCSQSTHVPWTFGGGTKLEIK [chain 1 Y102R M105N]	31.8 nM	0.764
chain 1 EVKLDETGGGLVQPGRPMKLSCVASGFTFSDYWMNWVRQSPEKGLEWVAQIRNKPYNYETYYSDSVKGRFTISRDDSKSSVYLQMNNLRVEDMGIYYCTGSRPGMDYWGQGTSVTVS chain 2 DVVMTQTPLSLPVSLGDQASISCRSSQSLVHSNGNTYLRWYLQKPGQSPKVLIYKVSNRFSGVPDRFSGSGSGTDFTLKISRVEAEDLGVYFCSQSTHVPWTFGGGTKLEIK [chain 1 Y102R Y103P]	≥ 10000 nM	0.979
chain 1 EVKLDETGGGLVQPGRPMKLSCVASGFTFSDYWMNWVRQSPEKGLEWVAQIRNKPYNYETYYSDSVKGRFTISRDDSKSSVYLQMNNLRVEDMGIYYCTGSRYGMDNWGQGTSVTVS chain 2 DVVMTQTPLSLPVSLGDQASISCRSSQSLVHSNGNTYLRWYLQKPGQSPKVLIYKVSNRFSGVPDRFSGSGSGTDFTLKISRVEAEDLGVYFCSQSTHVPWTFGGGTKLEIK [chain 1 Y102R Y107N]	≥ 10000 nM	0.81
chain 1 EVKLDETGGGLVQPGRPMKLSCVASGFTFSDYWMNWVRQSPEKGLEWVAQIRNKPYNYETYYSDSVKGRFTISRDDSKSSVYLQMNNLRVEDMGIYYCTGSSYGMDYWGQGTSVTVS chain 2 DVVMTQTPLSLPVSLGDQASISCRSSQSLVHSNGNTYLRWYLQKPGQSPKVLIYKVSNRFSGVPDRFSGSGSGTDFTLKISRVEAEDLGVYFCSQSTHVPWTFGGGTKLEIK [chain 1 Y102S]	0.869 nM	1.14
chain 1 EVKLDETGGGLVQPGRPMKLSCVASGFTFSDYWMNWVRQSPEKGLEWVAQIRNKPYNYETYYSDSVKGRFTISRDDSKSSVYLQMNNLRVEDMGIYYCTGSSYGMRYWGQGTSVTVS chain 2 DVVMTQTPLSLPVSLGDQASISCRSSQSLVHSNGNTYLRWYLQKPGQSPKVLIYKVSNRFSGVPDRFSGSGSGTDFTLKISRVEAEDLGVYFCSQSTHVPWTFGGGTKLEIK [chain 1 Y102S D106R]	≥ 10000 nM	0.499
chain 1 EVKLDETGGGLVQPGRPMKLSCVASGFTFSDYWMNWVRQSPEKGLEWVAQIRNKPYNYETYYSDSVKGRFTISRDDSKSSVYLQMNNLRVEDMGIYYCTGSSYGMWYWGQGTSVTVS chain 2 DVVMTQTPLSLPVSLGDQASISCRSSQSLVHSNGNTYLRWYLQKPGQSPKVLIYKVSNRFSGVPDRFSGSGSGTDFTLKISRVEAEDLGVYFCSQSTHVPWTFGGGTKLEIK [chain 1 Y102S D106W]	≥ 10000 nM	0.385
chain 1 EVKLDETGGGLVQPGRPMKLSCVASGFTFSDYWMNWVRQSPEKGLEWVAQIRNKPYNYETYYSDSVKGRFTISRDDSKSSVYLQMNNLRVEDMGIYYCTGSSYGMDYWLQGTSVTVS chain 2 DVVMTQTPLSLPVSLGDQASISCRSSQSLVHSNGNTYLRWYLQKPGQSPKVLIYKVSNRFSGVPDRFSGSGSGTDFTLKISRVEAEDLGVYFCSQSTHVPWTFGGGTKLEIK [chain 1 Y102S G109L]	≥ 10000 nM	0.228
chain 1 EVKLDETGGGLVQPGRPMKLSCVASGFTFSDYWMNWVRQSPEKGLEWVAQIRNKPYNYETYYSDSVKGRFTISRDDSKSSVYLQMNNLRVEDMGIYYCTGSSYGMDYWSQGTSVTVS chain 2 DVVMTQTPLSLPVSLGDQASISCRSSQSLVHSNGNTYLRWYLQKPGQSPKVLIYKVSNRFSGVPDRFSGSGSGTDFTLKISRVEAEDLGVYFCSQSTHVPWTFGGGTKLEIK [chain 1 Y102S G109S]	2.93 nM	1.12
chain 1 EVKLDETGGGLVQPGRPMKLSCVASGFTFSDYWMNWVRQSPEKGLEWVAQIRNKPYNYETYYSDSVKGRFTISRDDSKSSVYLQMNNLRVEDMGIYYCTGSSYGMDYWYQGTSVTVS chain 2 DVVMTQTPLSLPVSLGDQASISCRSSQSLVHSNGNTYLRWYLQKPGQSPKVLIYKVSNRFSGVPDRFSGSGSGTDFTLKISRVEAEDLGVYFCSQSTHVPWTFGGGTKLEIK [chain 1 Y102S G109Y]	≥ 10000 nM	0.248
chain 1 EVKLDETGGGLVQPGRPMKLSCVASGFTFSDYWMNWVRQSPEKGLEWVAQIRNKPYNYETYYSDSVKGRFTISRDDSKSSVYLQMNNLRVEDMGIYYCTGSSYGKDYWGQGTSVTVS chain 2 DVVMTQTPLSLPVSLGDQASISCRSSQSLVHSNGNTYLRWYLQKPGQSPKVLIYKVSNRFSGVPDRFSGSGSGTDFTLKISRVEAEDLGVYFCSQSTHVPWTFGGGTKLEIK [chain 1 Y102S M105K]	2.51 nM	1.02
chain 1 EVKLDETGGGLVQPGRPMKLSCVASGFTFSDYWMNWVRQSPEKGLEWVAQIRNKPYNYETYYSDSVKGRFTISRDDSKSSVYLQMNNLRVEDMGIYYCTGSSYGNDYWGQGTSVTVS chain 2 DVVMTQTPLSLPVSLGDQASISCRSSQSLVHSNGNTYLRWYLQKPGQSPKVLIYKVSNRFSGVPDRFSGSGSGTDFTLKISRVEAEDLGVYFCSQSTHVPWTFGGGTKLEIK [chain 1 Y102S M105N]	3.8 nM	1.31
